Measured values reported in PMC4577959 (Journal of the American Chemical Society, 2015).

How the values were obtained:
[1] = target: fluorescein-labeled N2B peptide (NHR2-binding motif of E-proteins); experiment: fluorescence polarisation
[2] = target: N2B peptide (NHR2-binding motif of E-proteins) (Homo sapiens, UniProt Q99081); settings: ratio of Kd values, FP assay with flu-N2B

Molecule | Kd [1] [µM] | enhanced affinity versus the native NHR2 coiled coil [2] [fold]
GST-NHR2(482–551), native Nervy homology two (NHR2) coiled coil domain of AML1-ETO (domain or fragment) | 356 | 
CC[C@H](C)[C@@H]1NC(=O)[C@H](CO)NC(=O)[C@H](CCCNC(=N)N)NC(=O)[C@H](Cc2c[nH]c3ccccc23)NC(=O)[C@@H](NC(=O)[C@H](CCC(=O)O)NC(C)=O)CSSC[C@@H](C(=O)N[C@@H](CCCNC(=N)N)C(N)=O)NC(=O)[C@H](CC(C)C)NC(=O)[C@H](CCC(=O)O)NC(=O)[C@@H](NC(=O)[C@H](CC(C)C)NC(=O)[C@H](Cc2c[nH]cn2)NC(=O)[C@H](Cc2c[nH]c3ccccc23)NC(=O)[C@H](CC(C)C)NC(=O)[C@H](CCC(=O)O)NC(C)=O)CCCCn2cc(nn2)COCc2cn(nn2)CCCC[C@@H](C(N)=O)NC(=O)[C@H](CC(C)C)NC(=O)[C@H](C(C)C)NC(=O)[C@H](CCCNC(=N)N)NC1=O [CHD^DS-NHR2-3] |  | 5
